Data as given in PMC2233886.

Legend:
CNGA1-eYFP = CNGA1-eYFP (UniProt Q00194); assay: FRET or BRET
eCFP-CNGB1 = eCFP-CNGB1 (UniProt Q28181); assay: FRET or BRET
[1] = biological target: heteromeric CNGA1/CNGB1 channels (UniProt Q00194); assay: patch-clamp fluorometry
Sequence of heteromeric CNGA1/CNGB1 channels (Q00194 whole entry K2E, chain 1 of 2): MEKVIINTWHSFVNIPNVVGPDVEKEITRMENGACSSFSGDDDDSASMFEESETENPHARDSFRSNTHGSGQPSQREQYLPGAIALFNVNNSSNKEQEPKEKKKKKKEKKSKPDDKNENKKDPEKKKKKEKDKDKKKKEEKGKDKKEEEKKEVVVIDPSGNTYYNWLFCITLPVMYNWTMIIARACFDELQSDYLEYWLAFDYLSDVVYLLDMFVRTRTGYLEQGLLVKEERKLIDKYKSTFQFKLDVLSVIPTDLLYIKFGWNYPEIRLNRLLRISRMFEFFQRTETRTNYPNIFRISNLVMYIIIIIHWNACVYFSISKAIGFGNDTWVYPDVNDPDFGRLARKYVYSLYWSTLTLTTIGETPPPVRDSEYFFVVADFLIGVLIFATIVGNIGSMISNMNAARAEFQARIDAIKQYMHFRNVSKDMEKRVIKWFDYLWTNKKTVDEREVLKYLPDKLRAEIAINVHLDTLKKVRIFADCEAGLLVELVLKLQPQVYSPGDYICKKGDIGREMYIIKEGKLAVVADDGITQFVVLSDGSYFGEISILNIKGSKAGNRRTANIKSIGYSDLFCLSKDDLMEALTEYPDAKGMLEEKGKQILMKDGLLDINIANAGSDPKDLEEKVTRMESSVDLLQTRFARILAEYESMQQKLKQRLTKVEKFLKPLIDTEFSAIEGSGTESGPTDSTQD
Sequence of heteromeric CNGA1/CNGB1 channels (Q28181 whole entry, chain 2 of 2, further chain): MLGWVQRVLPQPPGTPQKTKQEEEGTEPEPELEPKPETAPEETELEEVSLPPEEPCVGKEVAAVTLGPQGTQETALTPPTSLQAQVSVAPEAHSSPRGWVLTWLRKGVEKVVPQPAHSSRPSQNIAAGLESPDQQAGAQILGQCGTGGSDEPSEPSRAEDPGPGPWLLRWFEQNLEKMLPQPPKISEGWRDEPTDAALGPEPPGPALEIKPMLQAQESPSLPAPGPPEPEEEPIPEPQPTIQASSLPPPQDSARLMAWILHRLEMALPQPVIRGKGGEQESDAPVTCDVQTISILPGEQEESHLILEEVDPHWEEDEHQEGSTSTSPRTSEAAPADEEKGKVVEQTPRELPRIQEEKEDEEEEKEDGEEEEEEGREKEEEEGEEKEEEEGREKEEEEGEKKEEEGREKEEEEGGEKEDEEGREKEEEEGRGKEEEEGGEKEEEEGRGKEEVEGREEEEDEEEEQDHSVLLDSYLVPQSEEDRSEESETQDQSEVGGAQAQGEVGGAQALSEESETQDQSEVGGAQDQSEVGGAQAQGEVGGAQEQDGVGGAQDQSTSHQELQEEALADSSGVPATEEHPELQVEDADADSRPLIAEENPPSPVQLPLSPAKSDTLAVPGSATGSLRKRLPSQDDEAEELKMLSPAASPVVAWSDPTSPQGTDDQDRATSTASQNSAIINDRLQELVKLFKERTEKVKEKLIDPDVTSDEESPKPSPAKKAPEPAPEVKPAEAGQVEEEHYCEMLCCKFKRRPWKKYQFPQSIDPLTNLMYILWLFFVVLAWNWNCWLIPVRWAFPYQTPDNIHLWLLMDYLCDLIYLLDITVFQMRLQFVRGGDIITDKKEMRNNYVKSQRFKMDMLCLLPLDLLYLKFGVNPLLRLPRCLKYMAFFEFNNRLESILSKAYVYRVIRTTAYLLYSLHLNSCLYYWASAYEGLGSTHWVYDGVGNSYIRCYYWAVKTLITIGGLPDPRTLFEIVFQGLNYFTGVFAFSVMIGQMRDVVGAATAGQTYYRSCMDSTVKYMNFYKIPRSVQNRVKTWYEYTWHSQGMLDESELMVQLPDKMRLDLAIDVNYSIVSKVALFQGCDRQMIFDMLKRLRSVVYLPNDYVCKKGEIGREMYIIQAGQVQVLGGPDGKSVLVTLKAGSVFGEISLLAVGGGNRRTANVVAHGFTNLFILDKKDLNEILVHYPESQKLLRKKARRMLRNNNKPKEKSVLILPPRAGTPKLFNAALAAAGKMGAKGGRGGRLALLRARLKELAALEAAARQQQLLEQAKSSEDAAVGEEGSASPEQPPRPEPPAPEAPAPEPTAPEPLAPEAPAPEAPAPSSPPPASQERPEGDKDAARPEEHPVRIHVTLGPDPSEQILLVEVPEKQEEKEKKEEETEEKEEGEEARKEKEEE

Sequence of CNGA1-eYFP (Q00194 whole entry K2E): as the sequence (Q00194 whole entry K2E, chain 1 of 2) above
Sequence of eCFPΔCaM-CNGB1 (Q28181 whole entry, stated change not applied, the tested form may be a part): as the sequence (Q28181 whole entry, chain 2 of 2, further chain) above
Sequence of eCFP-CNGB1 (UniProt Q28181) (Q28181 whole entry): as the sequence (Q28181 whole entry, chain 2 of 2, further chain) above
Sequence of eCFP-CNGB1 (from UniProt Q28181 677-1394) (domain or fragment) (Q28181 whole entry, the tested form may be a part): as the sequence (Q28181 whole entry, chain 2 of 2, further chain) above

Q: Which F530/F480 ratio (initial, before Ca2+/CaM) (CNGA1-eYFP) does the source give for “eCFP-CNGB1 (from UniProt Q28181 677-1394) (domain or fragment)” here?
A: Its F530/F480 ratio (initial, before Ca2+/CaM) is 1.8.

Q: Which time constant of eCFP quenching (250 nM CaM-488) (eCFP-CNGB1) does the source give for “CaM conjugated to the fluorescent dye Alexa-488 (from UniProt P62157 1-149) (natural protein)” here?
A: Its time constant of eCFP quenching (250 nM CaM-488) is 24.6 s.

Q: What about the time constant of fluorescence decrease (washout in Ca2+-free solution) [1] of the same substance?
A: The time constant of fluorescence decrease (washout in Ca2+-free solution) was 51 s.

Q: What about the time constant of fluorescence increase (250 nM CaM-488) [1] of the same substance?
A: The time constant of fluorescence increase (250 nM CaM-488) was 18.5 s.

Q: “eCFPΔCaM-CNGB1 (from UniProt Q28181 702-1394) (domain or fragment)” was tested. Which reduction in FRET against eCFP-CNGB1 (CNGA1-eYFP) did it give?
A: Its reduction in FRET against eCFP-CNGB1 is 29%.
